Tests used:
[1] = biological target: influenza viral envelope hemagglutinin, vaccine preparation (Denka-Seken) with a mixture of the hema (influenza A virus (H1N1, H3N2) and influenza B virus); test: SPR; BIAcore X100; […]; HBS-N (10 mM HEPES, 150 mM NaCl, pH 7.4), 30 μL/min, […], dissociation 600 s; Langmuir 1:1 fit
[2] = biological target: Halimeda borneensis lectin HBL40 (Halimeda borneensis); test: SDS-PAGE, non-reducing against reducing; purified HBL40 on 12% gel with and without 2% 2-mercaptoethanol, Coomassie stain; about 40 kDa non-reducing, 20 kDa reducing
[3] = biological target: fetuin (UniProt P12763)
[4] = biological target: asialo-bovine submaxillary mucin (bovine)
[5] = biological target: bovine submaxillary mucin (bovine)
[6] = biological target: asialo-transferrin (UniProt P02787)
[7] = biological target: asialo-fetuin (UniProt P12763)
[8] = biological target: transferrin (UniProt P02787)
[9] = biological target: asialo-porcine thyroglobulin (porcine) (UniProt F1RRV3)
[10] = biological target: porcine thyroglobulin (porcine) (UniProt F1RRV3)

Substance: Halimeda borneensis lectin HBL40 (natural protein)
- Kd [1]: 1.21 µM
- koff [1]: 0.0433 s⁻¹
- kon [1]: 35600 M⁻¹ s⁻¹
- stoichiometry N [2]: 2
- hemagglutination inhibition (trypsin-treated rabbit erythrocytes): lowest concentration of glycoprotein that completely inhibited the hemagglutination activity of a lectin solution of titer 4 [3]: 1000 µg/mL
- hemagglutination inhibition (trypsin-treated rabbit erythrocytes): lowest concentration of glycoprotein that completely inhibited the hemagglutination activity of a lectin solution of titer 4 [4]: 31.3 µg/mL
- hemagglutination inhibition (trypsin-treated rabbit erythrocytes): lowest concentration of glycoprotein that completely inhibited the hemagglutination activity of a lectin solution of titer 4 [5]: 62.5 µg/mL
- hemagglutination inhibition (trypsin-treated rabbit erythrocytes): lowest concentration of glycoprotein that completely inhibited the hemagglutination activity of a lectin solution of titer 4 [6]: 62.5 µg/mL
- hemagglutination inhibition (trypsin-treated rabbit erythrocytes): lowest concentration of glycoprotein that completely inhibited the hemagglutination activity of a lectin solution of titer 4 [7]: 125 µg/mL
- hemagglutination inhibition (trypsin-treated rabbit erythrocytes): lowest concentration of glycoprotein that completely inhibited the hemagglutination activity of a lectin solution of titer 4 [8]: 500 µg/mL
- hemagglutination inhibition (trypsin-treated rabbit erythrocytes): lowest concentration of glycoprotein that completely inhibited the hemagglutination activity of a lectin solution of titer 4 [9]: 15.6 µg/mL
- hemagglutination inhibition (trypsin-treated rabbit erythrocytes): lowest concentration of glycoprotein that completely inhibited the hemagglutination activity of a lectin solution of titer 4 [10]: 31.3 µg/mL
